Experiment: yeast display, Sf9 membrane polyspecificity reagent, FACS + sequencing; frameworks hold sequencing errors
Outline: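 Using colony PCR, genes from sorted yeast display clones were amplified, then sequenced on MiSeq at 2 × 250 and filtered by CDR length. The clones had been stained with 10% biotinylated, detergent-solubilized Sf9 membrane reagent for 1 hour at 4 °C and sorted by FACS into low and high (top ~1%) gates on anti-HA and streptavidin fluorescence. Polyreactivity labels come from the gate of origin.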

| Sequence | polyreactivity (PSR sort gate) |
| --- | --- |
| QVQLVESGGGLVQAGGSLLLSCAPSGRTFPLNAMGWSRQAPGKERELVAAITWSGGRTYYADSVKGRFTISRDNAKNTVYLQMNSLKPEDTAVYYCAAKRTTWKIQSGYDYWGKGTQVTVSS | low polyreactivity |
| QVQLVESGGGLVQAGGSLLLSCDASGLTFGYYVMGWYRQAPGKERELVASITNGGGSTYYADSVKGRFTISRDYAKNTVYLQMNSLKPEDTAVYYCAAGSYLRKFDYWGQGTQVTVSS | high polyreactivity |
| QVQLVESGGGLVQAGGSLLLSCDASGNTFIENDMGWYIQAHGKERELVDPIDTGGYTYYADSVKGRFTISRDNAKNTVYLQMNSLKPDDTAVYYCTAVGLYLYRYKFGYLGKIGPGYDYWGQGTQVTVSS | low polyreactivity |
| QVQLVESGGGLVQAGGSLLLSSAPTGITFEGYSMGWSRQAPGKERELVAAIRSSGTSTYYADSVKGRFTISRDNAKNTVYLQMNSLKPDDTAVYYCNRARSSSRYDYWGQGTQVTVSS | low polyreactivity |
| QVQLVESGGGLVQAGGSLLLSWAASGRSFKYNAMGWDRQAPGKERELVAAISGSGGRTYYADSVKGRFTISRDNAKNTVYLQMNSLIPEDTAVYYCNARYVLYKPDYHRGGRMGYWGQGTQVTVSS | high polyreactivity |
| QVQLVESGGGLVQAGGSLPLSCAASGFISWGNAMGWSRQAPGKARELVAAISWRDARTYYADSVKGRFTISRDNAKNTVYLQMNSLKPEATAVYYCNAVTAYVSRNLGGYRWFDYWGQGTQVTVSA | low polyreactivity |
| QVQLVESGGGLVQAGGSLPLSCAASGRIFAFNVMGWYRQAPGKERELVAAISTRDGSTYYADSVKGRFTISRDNAKNTVYLQMNSLTPEDTAVYYCNAVVRYYDWGYWDYDYWGQGTQVTVSS | low polyreactivity |
| QVQLVESGGGLVQAGGSLPLSCAASGRIFSYYAMGRYRQAPGKERELVASISRSGGSTYYADSVKGRFTISRDNAKNTVYLQMISLKPEDTAVYYCAAYKYVRSYPYDYWGQGTQVTVSS | low polyreactivity |
| QVQLVESGGGLVQAGGSLPLSCAASGRTFLYNAMGWYRQAPGKERELVAAITKSGGSTYYADSVKGRFTISLDNAKNTVYLQMNTLKPEDTAVYYCAAARRYAYTGGYWGQGTQVTVSS | high polyreactivity |
| QVQLVESGGGLVQAGGSLPLSCAASGRTFWAYAMGWYRQAPGKERELVAAITTSGGSTNYADSVKGRFTISRDNAKNTVYLQMNSLKPEDTAVYYCNADPTYHVVNGVGYWGQGTQVTVSS | low polyreactivity |
| QVQLVESGGGLVQAGGSLPLSCAASGSIFDKYTMGWYRQAPGKERELVAAISRDSGSTYYADSVKGRFTISRDNAKNTVYLQMNSLKPEDTAVYYCAARLGYYGYDYWGQGTQVTVSS | low polyreactivity |
| QVQLVESGGGLVQAGGSLPLSCAASGSIYGANAQGWYRQAPGKERELVAAISSNGDDTYADSVKGRFTISRDNAKNTVYIQMNSLKPEDTAVYYCNKRPWWWGGDDYGGQGTQVTVSS | low polyreactivity |
| QVQLVESGGGLVQAGGSLPLSCAASGSTFKQNVMGWYIQAPGKERELVAAITSNDDRTYYADSVKGRFTISRDNAKNTFYLQMNSLKPEDTAVYYCAVESLRDVFEYDYWGQGTQVTVSS | low polyreactivity |
| QVQLVESGGGLVQAGGSLPLSSAASGFTFYRNAMGWYRQVPGKERELVAAITTRGVTTYYADSVKGRFTIARDYAKNTVYVLMNCLKPVDTAVYYFAAKKSLIGDYWGQGTQVTVSS | high polyreactivity |
| QVQLVESGGGLVQAGGSLPVSCAASGFTIVYYAKGWYRQAPGKERELVADISSEGSTYADSVKGRFTISRDNAKNTVSLQMNSLKPEDTAVYYCPAQPIYSYWRSSLYYYWGQGTQVTVSS | high polyreactivity |
| QVQLVESGGGLVQAGGSLRFSCAASGFIFIFYAMGWYRQAPGKERELVAGISWSSSSTYYADSVKRRFSISRDNAKNTVYLQMNRLKPEDTAVYYCAKDGLSVSGEYDYWGQGTQVTVSS | low polyreactivity |
| QVQLVESGGGLVQAGGSLRFSCAASGFTFASNAMGWYRQAPGQERELVAAITSGGRTYYADSVKGRFTISRDNAKNTVYLQMNSLKPEDTAVYYCAKPNGALKRYYYWGQGTQVTVSS | high polyreactivity |
| QVQLVESGGGLVQAGGSLRFSCAASGIIFRIYAMGWYRQAPGKEREFVAAISGSGDSTYYADSVKGRFTISRDNAKNTVNLQMNSLKPEDSAVYYCAADWTLVYYHEDYWGQGSQVTVSS | low polyreactivity |
| QVQLVESGGGLVQAGGSLRFSCAASGRIFFWYAMGWYRQAPGKEWELVAAISRDGGTTYYADSVKGRFTISRDNAKNTVYLQMNSLKPEDTAVYYCNAEARSRRYRYDYWGQGTQVNVSS | high polyreactivity |
| QVQLVESGGGLVQAGGSLRFSCAASGRIFTVNAMGWDRQARGKERELVASITGRGTRTYYADSVKGRFTISRDNAKNTVYLQMNSLKPEDTAVYYCAARAVKQYGNSYDYWGQGTQVTVSS | high polyreactivity |
| QVQLVESGGGLVQAGGSLRFSCAASGRTFYVYALGWYRQAPGKERELVARIRGRGGITFYADSVKGRFTISRDNAKNTVYLQMNSLKPEDTAVYYCAADFRSNYDYWGQGTQVTVAS | high polyreactivity |
| QVQLVESGGGLVQAGGSLRFSCAASGSIFGTYAMGWYRQAPGKERELVAAITGNGGRTYYADSVKGRFTISRDNAKNTVYLQMNSLKPEDTAVYYCAKATSRRGFYYWGQGTQVTVSS | high polyreactivity |

| Sequence | polyreactivity (PSR sort gate) |
| --- | --- |
| QVQLVESGGGLVQAGGSLRFSCAASGSIFHYYAMGWYRQAPGKERELVAAISGGSRTKYADSVKGRFTISRDNAKNTVYLQMNSLKPEDTAVYYCAKRYYYPYRYYYWGQGTQVTVSS | high polyreactivity |
| QVQLVESGGGLVQAGGSLRFSCAASGSIFIANAMGWYRQAPGQERALVAAIDSGGSTNYADSVKGRFTISRDNAKNTVYLQMNSLKPEDTAVYYCADDGTLTAPGGDYWGQGTQVTVSS | high polyreactivity |
| QVQLVESGGGLVQAGGSLRFSCAASGSIFKTNAIGWYRQAPGKERELVAAIRASGGSTYYADSVKGRFTISRDNAKNTVYLQMNSLKPEDTAVYYCAARVSGSRKYYYWGQGTQVTVSS | high polyreactivity |
| QVQLVESGGGLVQAGGSLRFSCAASGSIFPYYAMGWYRQAPGKERELVAAISDSGDSTYYADSVKGRFTISRDNAKNTVYLQMNSLKPEDTAVYYCAADQTSSYYDPWGDYWGQGTQVTVSS | low polyreactivity |
| QVQLVESGGGLVQAGGSLRFSCAASGSIFSVYAMGGYRQAPGKERELVASITSGGRTKYADSVKGRFTISRDNAKNTVYLQMNSLKPEDTAVYYCAAGTTWRYGGKYNYWGQGTQVTVSS | low polyreactivity |
| QVQLVESGGGLVQAGGSLRFSCAASGSTFQYYAMGWYRQAPGKERELVAAISYGGSRTYYADSVKGRFTISRDNAKNTVYLQMNSLKPEDTAVYYCANEKYRALAPYYYWGQGTQVTVSS | high polyreactivity |
| QVQLVESGGGLVQAGGSLRFSCAASGSTFRKNAMGWYRQAPGKERELFASISISGGRTNYADSVKGRFTISRDHAKNTVYLQLNSLKPEDTAVYDCAATTSPRSARYYYWGQGTQVTVSS | high polyreactivity |
| QVQLVESGGGLVQAGGSLRFSCAASGSTFRPNAMGWYRPAPGKERELVAAISRSGVSTYYADSVKGRFTISRDNAKNTVYLQMNSLKPEDTAVYYCAAKLVVSYGQEYDYWGQGTQVTVSS | low polyreactivity |
| QVQLVESGGGLVQAGGSLRFSCAASGSTFVRYPMGWYRQAPGKERELVAAITRSGGRTYYADSVKGRFTISRDNAKNTVYLQMNSLKPEDTAVYYCAADVSHVQGYDYWGQGTQVTVSS | high polyreactivity |
| QVQLVESGGGLVQAGGSLRFSCAASGSTFVYYAMGWSRQAPGKERELVARITLSGTSTSYADSVKGRFTISRDNAKNTVYLQMNSLKPEDTAVYYCAAESWSHRYYYWGQGTQVTVSS | low polyreactivity |
| QVQLVESGGGLVQAGGSLRFSCAASGSTFYAYAMGWYRQAAGQERELVAAIDSGGSTYYADSVKGRFTISRDNAKNTLYLQKNSLNPEDTAVYYCAVRHRYTRAYWGRDYWGQGTQVTVSS | low polyreactivity |
| QVQLVESGGGLVQAGGSLRFTCAASGRIFLGYAMGWYRQAAGKEREFVAAINSVASTNYADSVKGRFTISRDNAKNTVYLQMNSLKPEDTAVYYCAAVYFLVQSDLPAYDYWGQGTQVTVSS | low polyreactivity |
| QVQLVESGGGLVQAGGSLRFTCAASGRIFRTNAMGWYRQAHGKEREFVAAISKDGGRTYYADSVKGRFTISRDNAKNTVYLQMNSLKPEDTAVFYCNVLVKHSTTTYSTYDYWGQGSQVTVSS | high polyreactivity |
| QVQLVESGGGLVQAGGSLRIICAASGRIFYGNTMGWYRQAPGKERELVAAITIGDSTNYADSVKGRFTISRDNAKNTVYFQMNSLKPEDTAVYYCAKRNWWGYYNYDYWGQGTQVTVSS | low polyreactivity |
| QVQLVESGGGLVQAGGSLRIICAASGYIFVRNAMGWYRQAPGKERELVAAISCSGGSTYYADSVKGRFTISRDNAKNTVFLQMNSLKPEDTAVYSCAADYATVTWRGIAYDYWGQGTQVTVSS | low polyreactivity |
| QVQLVESGGGLVQAGGSLRIICAATGSIFYWNAMGWYRQSPGKEREFVASIRKSGGSTNYADSVKGRFTISRDNAKNTVYLQMTSQKPEDTAVYYCAAYSYYRGTFYDYWGQGTQVTVSS | low polyreactivity |
| QVQLVESGGGLVQAGGSLRIRCAASGRIFNQYAMGWYRQAPGKERELVASITQRGGRTYYADSVKGRFTISRDNAKNTVYLQMNSLKPEDTAVYYCAKQCYYVTARTGYDYWGQGTQVTVSS | high polyreactivity |
| QVQLVESGGGLVQAGGSLRISCAASGFIFAHNAMGWYRQAPGKERELVAAITSSGGSTYYADSVKGRFTISRDNAKNTVYLQMNSLKPEDTAVYYCAAYWKLGGFRYGYWGQGTQVTVSS | high polyreactivity |
| QVQLVESGGGLVQAGGSLRISCAASGFIFASYTMGWYRQAPGKERELVAAISRAGSTYYADSVKGRFTISPDNAKNTVYLQMNSLKPEDTAVYYCNAVSWRTSRYDYWGQGTQVTVSS | high polyreactivity |
| QVQLVESGGGLVQAGGSLRISCAASGFIFFPYTRGCSRQAPGKLMELVAAITNGGSTSYADSVKGRFTISRDNAKKTGYLQMNSLKPEDTAVYSCAAVLGRNLLHTYYYWGQGTQVTGSS | low polyreactivity |
| QVQLVESGGGLVQAGGSLRISCAASGFIFRGNTMGWYRQAPGKERELVASITRGGGRTYYADSVKGRFTISRDNAKNTVYLQMNSLKPEDTAVYYCAARTRSDNSYHGGEYWGQGTQVTVSS | high polyreactivity |

From the nanobody polyreactivity screen of Harvey et al. (2022)
